The labels stand for the following.
B1: G001_gp1_V07_VRC01c_102 (antibody, V domains shown)
VH: QVQLVQSGAEVKKPGASVKVSCKASGYTFTGYYMHWVRQAPGQGLEWMGWINPISGGTNYAQEFQDWVTMTRDTSISTAYMELSRLRSDDTAVYYCARHDSSENAFDIWGQGTMVTVSS
VL: DIQMTQSPSTLSASVGDRVTITCRASQSTSRWLAWYQQKPGKAPKLLIYKASSLESGVPSRFSGSGSGTEFTLTISSLQPDDFATYYCQQYTSFGQGTKLEIK
B2: G001_gp1_V07_VRC01c_2021-0034 (antibody, V domains shown)
VH: QVQLVQSGAEVKKPGASVKVSCKASGYTFSGYYMHWVRQAPGQGLEWMGWINPNSGGTNYAQKFQGGVTMTRDTSISTAYMELSSLRSDDTAVYYCAREGGLGATAFDYWGQGTLVSVSS
VL: DIQMTQSPSTLSASVGDRVTITCRASQSISSWLAWYQQKPGKAPKLLIYKASSLESGVPSRFSGSGSGTEFTLTISSLQPDDFATYYCQQYETFGQGTKLEIK
B3: G001_gp1_V07_VRC01c_2021-0033 (antibody, V domains shown)
VH: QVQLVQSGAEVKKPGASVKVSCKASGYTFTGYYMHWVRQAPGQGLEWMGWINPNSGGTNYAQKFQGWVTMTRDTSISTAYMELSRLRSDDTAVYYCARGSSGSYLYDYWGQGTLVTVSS
VL: DIQMTQSPSTLSASVGDRVTITCRASQSISSWLAWYQQKPGKAPKLLIYKASSLESGVPSRFSGSGSGTEFTLTISSLQPDDFATYYCQQYETFGQGTKVEIK
B4: G001_gp1_V07_VRC01c_111 (antibody, V domains shown)
VH: QVQLVQSGAEVKKPGASVKVSCKASGYTFTGYYMHWVRQAPGQGLEWMGWIYPNSGGTNYVQEFQGRVTMTRDTSISTAYMELSRLRSDDTAVYYCATDNYTTSSMLLRTWGQGTLVTVSS
VL: DIQMTQSPSTLSASVGDRVTITCRASQSISSWLAWYQQKPGKAPKLLIYKASSLESGVPSRFSGSGSGTEFTLTISSLQPDDFATYYCQQYETFGQGTKVEIK
B5: G001_gp1_V06_VRC01c_87 (antibody, V domains shown)
VH: not shown
VL: EIVMTQSPATLSVSPGERATLSCRASQSVSSNLAWYQQKPGQAPRLLIYGASTRATGIPARFSGSGSGTEFTLTISSLQSEDFAVYYCQQYETFGQGTKVEIK
B6: G001_gp1_V07_VRC01c_105 (antibody, V domains shown)
VH: not shown
VL: EIVMTQSPATLSVSPGERATLSCRASQSVSSNLAWYQQKPGQAPRLLIYGASTRATGIPARFSGSGSGTEFTLTISSLQSEDFAVYYCQQYNIFGQGTKLEIK
B7: G001_gp1_V07_VRC01c_2021-0032 (antibody, V domains shown)
VH: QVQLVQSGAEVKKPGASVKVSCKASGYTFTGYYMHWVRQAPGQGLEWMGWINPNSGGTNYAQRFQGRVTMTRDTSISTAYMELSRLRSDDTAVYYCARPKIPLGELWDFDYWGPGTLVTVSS
VL: EIVMTQSPATLSVSPGERATLSCRASQSVSSNLAWYQQKPGQAPRLLIYGASTRATGIPARFSGSGSGTEFTLTISSLQSEDFAVYYCQQYEFFGPGTKVDIK
B8: G001_gp1_V07_VRC01c_2021-0035 (antibody, V domains shown)
VH: QVQLVQSGAEVKKPGASVKVSCKASGYTFTDYYLHWVRQAPGQGLEWMGWINPNSGGTNYAQKFQDWVTMTRDTSISTAYMELSRLRSDDTAVYYCARDGLAARWDFDSWGQGTLVTVSS
VL: SYELTQPPSVSVAPGQTARITCGGNNIGSKSVHWYQQKPVQAPVLVVYDDGDRPSGIPERFSGSNSGNTATLTISRVEAGDEADYYCQVLEVFGTGTKVTVL
B9: G001_gp1_V06_VRC01c_86 (antibody, V domains shown)
VH: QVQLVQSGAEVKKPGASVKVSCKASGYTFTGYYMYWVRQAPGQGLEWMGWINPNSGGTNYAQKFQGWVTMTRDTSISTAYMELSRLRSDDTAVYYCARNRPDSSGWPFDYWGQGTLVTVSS
VL: QSALTQPPSASGSPGQSVTISCTGTSSDVGGYNYVSWYQQHPGKAPKLMIYEVSKRPSGVPDRFSGSKSGNTASLTVSGLQPEDEADYYCSSYEVFGTGTRVTVL
B10: G001_gp1_V07_VRC01c_101 (antibody, V domains shown)
VH: QVQLVQSGAEVKKPGASVKVSCKASRDTFTGYYMHWVRQAPGQGLEWMGWINPNSGGTNYAQKFQDGVTLTRDTSISTAYMELSRLRSDDTAVYYCARTEYYSQRGWAFDIWGQGTMVTVSS
VL: DIQMTQSPSSLSASVGDRVTITCQASQDISNHLNWYQQKPGKAPKLLIYDASNLETGVPLRFSGSGSGTDFTFTISSLQPEDIATYYCQQYDNFGPGTKVDIK
B11: G001_gp1_V07_VRC01c_2021-0036 (antibody, V domains shown)
VH: QVQLVQSGAEVKKPGASVKVSCKASGYTFTGYYMHWVRQAPGQGLEWMGWINPNSGGTNYAQKFQDWVTMTRDTSISTAYMEVSRLKSDDTAVYYCARGRAGTTAWWYFDLWGRGALVTVSS
VL: DIQMTQSPSSLSASVGDRVTITCQASQDISNYLNWYQQKPGKAPKLLIYDASNLETGVPSRFSGSGSGTDFTFTISSLQPEDVATYYCQQYDSFGPGTKVDIK
B12: G001_gp1_V07_VRC01c_107 (antibody, V domains shown)
VH: QVQLVQSGAEVKKPGASVKVSCKASGYTFTGYYMHWVRQAPGQGLEWMGWINPSSGGTNYAQKFQGRVTMTRDTSISTAYMELDWLRSDDTAVYYCARVRGATTFDYWGQGTLVTVSS
VL: DIQMTQSPSSLSASVGDRVTITCQASQDISNYLHWYQQKPGKAPKLLIYDASKLETGVPSRFSGSGSGTDFTFTISSLQPEDIATYYCQQYNTFGQGTKLQIK
B13: G001_gp1_V07_VRC01c_2021-0038 (antibody, V domains shown)
VH: not shown
VL: DIQMTQSPSSLSASVGDRVTITCQASQGISNYLNWYQLKPGKAPKLLISDASNLETGVPSRFSGSGSGTDFTFTISSLQPEDIATYYCQQYDYFGPGTTVDIK
B14: G001_gp1_V07_VRC01c_2021-0037 (antibody, V domains shown)
VH: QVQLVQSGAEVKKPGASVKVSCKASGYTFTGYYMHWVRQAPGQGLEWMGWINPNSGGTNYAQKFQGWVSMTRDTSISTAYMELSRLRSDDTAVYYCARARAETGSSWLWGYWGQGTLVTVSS
VL: DIQMTQSPSSLSASVGDRVTITCQASQDISNYLNWYQQKPGKAPKLLIYDASNLETGVPSRFSGSGSGTDFTFTISSLQPEDIATYYCQEYDTFGGGTKVEIK
B15: G001_gp1_V07_VRC01c_2021-0031 (antibody, V domains shown)
VH: not shown
VL: DIQMTQSPSSLSASVGDRVTITCQASQDISEYLNWYQQKPGKAPKLLIYDASNLETGVPSRFSGSGSGTDFTFTISSLQPEDVATYYCQQYEFFGGGTKVEIK
B16: G001_gp1_V06_VRC01c_88 (antibody, V domains shown)
VH: QVQLVQSGAEVKKPGASVKVSCKASGYTFTGYYMHWVRQAPGQGLEWMGWINPNSGGTNYAQKFQGRVTMTRDTSISTAYMELRGLRSDDTAVYYCASLYYYVPGGWGQGTLVTVSS
VL: EIVLTQSPGTLSLSPGERATLSCRASQSVSNSYLAWYQQKPGQAPRLLIYGASSRATGIPDRFSGSGSGTDFTLTISRLEPEDFAVYYCQQYVTFGPGTKVDIK
B17: G001_gp1_V07_VRC01c_110 (antibody, V domains shown)
VH: QVQLVQSGAEVKKPGASVRVSCKASGYTFTDYYMHWVRQAPGQGLEWMGWINPNSGGTNYAQKFQGRVTMTRDTSISTAYMELSGLRSDDTAVYYCARITGYYDSSGYYCLDHWGQGTLVTVAS
VL: EIVLTQSPGTLSLSPGERATLSCRASQSGRSSYLAWYQQKPGQAPRLLIYGASSRATGIPDRFSGSGSGTDFTLTISRLEPEDFAVYYCHQYAAFGQGTKVEIK
B18: G001_gp1_V07_VRC01c_109 (antibody, V domains shown)
VH: QVQLVQSGAEVKKPGASVKVSCKTSGYTFTDYYIHWVRQAPGQGLEWMGWINPNSGGTNYAQKFQGGVTMTRDTSISTAYMDLNRLTSDDTAVYYCTRLPPNRAAPGWWFDPWGQGTLVTVSS
VL: EIVLTQSPGTLSLSPGERATLSCRASQSVSSSYLAWYQQKPGQAPRLLIYGASNRATGIPDRFSGSGSGTDFTLTISRLEPEDFAVYYCQQYGAFGQGTKVEIK

The assay concerns the target eOD-GT8 (engineered outer domain germline-targeting version 8), monomer (HIV-1 gp120 engineered outer domain, …).
B1: the binding result is “binds”.

For the molecule B2, the binding result is recorded as “binds”.

As for B3, the binding result is listed as “binds”.

With B4, the binding result was “binds”.

With B5, the binding result is “binds”.

For B6, the binding result was “binds”.

As for B7, the binding result is “binds”.

For the molecule B8, the binding result is given as “binds”.

For the molecule B9, the binding result is reported as “binds”.

For B10, the binding result was “binds”.

As to B11, the binding result was “binds”.

Turning to B12, the binding result is on record as “binds”.

For B13, the binding result is listed as “binds”.

As to B14, the binding result is “binds”.

B15: the binding result is on record as “binds”.

For the molecule B16, the binding result is recorded as “binds”.

Take B17: the binding result is recorded as “binds”.

Consider B18, for which the binding result was “binds”.

The values above are taken from PMC12377726 (Proceedings of the National Academy of Sciences of the …, 2025).
